Measurements as given in paper PMC12749422.

Assays:
[1] = biological target: A/Singapore/INFIMH/16 (Sing/16) H3 hemagglutinin, recombinant HA-GCN4-2x sfGFP, glycosylated (influenza A virus A/Singapore/INFIMH/16 (H3N2)); test: cryo-EM structure
[2] = biological target: A/Singapore/INFIMH/16 (Sing/16) H3 hemagglutinin, recombinant HA-GCN4-2x sfGFP, treated with endo H (influenza A virus A/Singapore/INFIMH/16 (H3N2)); test: cryo-EM structure

Substance | stoichiometry N [1] | stoichiometry N [2]
A/Singapore/INFIMH/16 (Sing/16) H3 hemagglutinin, recombinant HA-GCN4-2x sfGFP, glycosylated (natural protein) | 3 | –
A/Singapore/INFIMH/16 (Sing/16) H3 hemagglutinin, recombinant HA-GCN4-2x sfGFP, treated with endo H (natural protein) | – | 3
